Experimental data as given in patent US20150202273A1 (SHENZHEN INNOVATION IMMUNOTECHNOLOGY, published 2015).

molecular target: HLA-A2 molecules on T2 cells (human); assay: cell-based or functional assay

Binder	IFN-γ release (ELISA) by expanded peptide-specific T cells in response to T2 cells pre-loaded with titrated peptide (0-20 µg/ml)
WLAFPLCSL [PSGR4]	5 µg/mL
ILANIYLLV [PSGR3]	5 µg/mL
VILANIYLLV [PSGR14]	5 µg/mL
